Results from US20250369044.

Legend:
[1] = test system: mNG-alpha_helix (mNG with an alpha-helical blocking domain and ssrA tag)
[2] = test system: MBP-C chemically tagged on its C-terminal cysteine with the maleimide Peptide-2 tag
[3] = test system: C-MBP dimer (MBP variant with a cysteine on the third residue, disulfide-linked N-terminus to N-terminus homodimer)
[4] = test system: mNG-HTH (mNG with a helix-turn-helix blocking domain and ssrA tag)
[5] = test system: {MBP}-{MBP-1}, genetic fusion protein of two MBP proteins (805 amino acids, 88 kDa)
[6] = test system: MBP-1 (His-tagged Maltose Binding Protein with C-terminal leader: polyglycine stall, polyarginine capture, ssrA recognition motif)
[7] = test system: mNG-beta_hairpin (mNG with a hairpin blocking domain and ssrA tag)

E. coli ClpX, N-terminal truncated variant (residues 61-423)
fluorescence over time at 37° C. after adding ClpX and ATP [1]: no decrease in fluorescence
ClpX controlled translocation of tagged MBP (ionic current) [2]: ClpX controlled MBP translocations (marked by arrows) are evident from the characteristic pattern of changing ionic current signals
nanopore read of the disulfide-linked dimer with ClpX and ATP in cis [3]: After reading the first monomer of C-MBP, the unfoldase was able to pass through the disulfide bond, after which it reads the second C-MBP monomer in the N- to C-terminus direction
fluorescence over time at 37° C. after adding ClpX and ATP [4]: no decrease in fluorescence
full length single-molecule reads with ClpX and ATP in cis [5]: full length reads of the protein were reliably obtained
ClpX controlled translocation with 1M KGlu in cis and 1 M KCl in trans [6]: ClpX controlled MBP-1 translocations were obtained from CytK 4D2E nanopores systems with 1M KGlu in the cis and 1 M KCl in trans
ClpX-controlled translocation of MBP-1 through the nanopore (ionic current) [6]: clear and consistent capture and subsequent ClpX-controlled translocation of MBP-1 was observed
rate of ClpX translocating along the polypeptide [6]: about 12-15 aa/second in these conditions
trans-to-cis ClpX controlled translocation (ionic current) [6]: characteristic ClpX controlled MBP-1 translocation events occurred trans-to-cis
translocation with 2.5 mM Gamma-S-ATP in place of ATP [6]: long blockades that never progressed to the changing current levels phase associated with ClpX translocase controlled movement of polypeptide that was observed under regular ATP conditions
fluorescence over time at 37° C. after adding ClpX and ATP [7]: no decrease in fluorescence
